What was measured:
[1] = biological target: T1, cyno PRLR (Biacore antigen) (cyno, UniProt A0A2K5WXK1 25-234); assay: SPR Biacore
T1 construct: also called cyPRLR
T1 sequence: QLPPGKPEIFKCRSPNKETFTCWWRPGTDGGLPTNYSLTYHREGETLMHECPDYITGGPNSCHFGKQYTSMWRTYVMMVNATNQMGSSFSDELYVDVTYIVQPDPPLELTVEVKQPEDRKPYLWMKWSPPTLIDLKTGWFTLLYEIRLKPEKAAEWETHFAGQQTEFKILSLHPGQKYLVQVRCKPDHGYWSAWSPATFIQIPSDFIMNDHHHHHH
Procedure, shortened: (§1)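 Association rate, dissociation rate and dissociation constant were measured by surface plasmon resonance on a Biacore instrument. PRLR antigen was tested at 600 nM, 66.67 nM and 7.41 nM, a 3-point, 9-fold dilution series. Constants came from a 1:1 binding model fit (local Rmax, mass-transport term included) in Biacore T200 Evaluation Software.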

[2] = biological target: T2, human PRLR (Biacore antigen) (human, UniProt P16471 25-234, limits assumed); assay: SPR Biacore
T2 construct: The construct injected over captured antibody is not described (a soluble form is likely); also called huPRLR
T2 sequence: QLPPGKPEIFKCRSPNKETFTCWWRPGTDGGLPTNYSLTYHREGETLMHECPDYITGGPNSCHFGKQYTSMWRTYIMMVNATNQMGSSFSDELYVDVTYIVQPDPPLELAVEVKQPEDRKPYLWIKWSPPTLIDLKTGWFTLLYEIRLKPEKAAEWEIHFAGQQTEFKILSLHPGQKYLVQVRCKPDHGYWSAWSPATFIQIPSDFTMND
Procedure, shortened: as §1

human PRLR on cells = biological target: T3, human PRLR on cells (human, UniProt P16471 25-622); assay: cell-based or functional assay
T3 sequence: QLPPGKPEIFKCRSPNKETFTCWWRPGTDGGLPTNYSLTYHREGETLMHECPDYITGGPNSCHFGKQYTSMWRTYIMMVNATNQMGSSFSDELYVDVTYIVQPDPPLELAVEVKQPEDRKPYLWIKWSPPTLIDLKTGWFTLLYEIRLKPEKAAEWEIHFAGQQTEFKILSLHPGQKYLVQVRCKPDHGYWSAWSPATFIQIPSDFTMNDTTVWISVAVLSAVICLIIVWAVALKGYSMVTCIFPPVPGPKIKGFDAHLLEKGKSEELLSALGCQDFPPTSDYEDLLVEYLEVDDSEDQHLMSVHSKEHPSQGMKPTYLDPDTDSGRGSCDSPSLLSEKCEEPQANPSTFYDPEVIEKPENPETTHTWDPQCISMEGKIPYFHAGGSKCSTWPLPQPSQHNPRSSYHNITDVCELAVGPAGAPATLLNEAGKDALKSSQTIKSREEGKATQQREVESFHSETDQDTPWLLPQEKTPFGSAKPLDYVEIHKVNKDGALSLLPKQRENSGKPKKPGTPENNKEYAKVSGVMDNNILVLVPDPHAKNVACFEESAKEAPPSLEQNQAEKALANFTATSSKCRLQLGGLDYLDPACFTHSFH

[3] = biological target: cyno PRLR on Baf3-cyPRLR cells (cyno); assay: cell-based or functional assay

B1: Ab53 (antibody, human IgG1, kappa, V domains shown)
VH: EVQLVQSGAEVKKPGSSVKVSCKASGYTFTSYWIHWVRQAPGQGLEWIGEIDPSDSYTNYNQKFKGRVTITVDKSTSTAYMELSSLRSEDTAVYYCARSFFTNWFAYWGQGTLVTVSS
VL: DVVMTQTPLSLSVTPGQPASISCRSSQSLVHSNGNTYLHWYLQKPGQSPQLLIYKVSNRFSGVPDRFSGSGSGTDFTLKISRVEAEDVGVYFCSQSTHVPFTFGGGTKVEIKR
notes: humanized from Ab7 (back mutations on Ab36); G1; also called Ab4 HC.1b.2 and Ab4 LC.1a
[1]
  Kd: 7.8 nM
  koff: 0.00089 s⁻¹
  kon: 110000 M⁻¹ s⁻¹
[2]
  Kd: 8.5 nM
  koff: 0.001 s⁻¹
  kon: 120000 M⁻¹ s⁻¹
Human PRLR on cells
  Baf3-hPRLR proliferation IC50: 1.03 µg/mL

B2: Ab42 (antibody, human IgG1, kappa, V domains shown)
VH: EVQLVQSGAEVKKPGSSVKVSCKASGGTFTSYWIHWVRQAPGQGLEWIGEIDPSDSYTNYAQKFQGRVTITVDKSTSTAYMELSSLRSEDTAVYYCARSFFTNWFAYWGQGTLVTVSS
VL: DVVMTQTPLSLSVTPGQPASISCRSSQSLVHSNGNTYLHWYLQKPGQSPQLLIYKVSNRFSGVPDRFSGSGSGTDFTLKISRVEAEDVGVYFCSQSTHVPFTFGGGTKVEIKR
Human PRLR on cells
  Baf3-hPRLR proliferation IC50: 4.76 µg/mL

B3: chAb9 (antibody, human IgG1, kappa, V domains shown)
VH: EVQLQQSGPELVRPGASVKISCKASGYSFTDYNMHWVKQSHGKSLEWIGYIYPYNGGAGYNQKFKSKATMNVGISSSTAYMELRSLTSEDSAVYYCARGDGNYVGDMDYWGQGTSVTVSS
VL: DIQMTQSPASLSASVGETVTITCRASENIYSYLAWYQQKQGKSPQLLVYNAKTLAEGVPSRFSGSGSGTQFSLKINSLQPEDFGSYYCQHHSGTPFTFGSGTKLEIKT
[3]
  Baf3-cyPRLR proliferation IC50: 10.4 µg/mL
Human PRLR on cells
  Baf3-hPRLR proliferation IC50: 0.2 µg/mL

B4: Ab32 (antibody, human IgG1, kappa)
heavy: not shown
light: DIVMTQTPLSLSVTPGQPASISCRSSQRLVHSNGNTYLHWYLQKPGQSPQLLIYKVSNRFSGVPDRFSGSGSGTDFTLKISRVEAEDVGVYYCSQSTHVPWTFGGGTKVEIKRTVAAPSVFIFPPSDEQLKSGTASVVCLLNNFYPREAKVQWKVDNALQSGNSQESVTEQDSKDSTYSLSSTLTLSKADYEKHKVYACEVTHQGLSSPVTKSFNRGEC
Human PRLR on cells
  Baf3-hPRLR proliferation IC50: > 30 µg/mL

B5: Ab34 (antibody, human IgG1, kappa)
heavy: not shown
light: DVVMTQTPLSLSVTPGQPASISCRSSQRLVHSNGNTYLHWYLQKPGQSPQLLIYKVSNRFSGVPDRFSGSGSGTDFTLKISRVEAEDVGVYYCSQSTHVPWTFGGGTKVEIKRTVAAPSVFIFPPSDEQLKSGTASVVCLLNNFYPREAKVQWKVDNALQSGNSQESVTEQDSKDSTYSLSSTLTLSKADYEKHKVYACEVTHQGLSSPVTKSFNRGEC
Human PRLR on cells
  Baf3-hPRLR proliferation IC50: > 30 µg/mL

B6: Ab41 (antibody, human IgG1, kappa)
heavy: not shown
light: DIVMTQTPLSLSVTPGQPASISCRSSQSLVHSNGNTYLHWYLQKPGQSPQLLIYKVSNRFSGVPDRFSGSGSGTDFTLKISRVEAEDVGVYYCSQSTHVPFTFGGGTKVEIKRTVAAPSVFIFPPSDEQLKSGTASVVCLLNNFYPREAKVQWKVDNALQSGNSQESVTEQDSKDSTYSLSSTLTLSKADYEKHKVYACEVTHQGLSSPVTKSFNRGEC
Human PRLR on cells
  Baf3-hPRLR proliferation IC50: 4.38 µg/mL

B7: Ab43 (antibody, human IgG1, kappa)
heavy: not shown
light: DVVMTQTPLSLSVTPGQPASISCRSSQSLVHSNGNTYLHWYLQKPGQSPQLLIYKVSNRFSGVPDRFSGSGSGTDFTLKISRVEAEDVGVYYCSQSTHVPFTFGGGTKVEIKRTVAAPSVFIFPPSDEQLKSGTASVVCLLNNFYPREAKVQWKVDNALQSGNSQESVTEQDSKDSTYSLSSTLTLSKADYEKHKVYACEVTHQGLSSPVTKSFNRGEC
Human PRLR on cells
  Baf3-hPRLR proliferation IC50: 6.75 µg/mL

B8: Ab33 (antibody, human IgG1, kappa, V domains shown)
VH: EVQLVQSGAEVKKPGSSVKVSCKASGGTFTSFWMHWVRQAPGQGLEWIGVIDPSDTYTNYAQKFQGRVTITVDESTSTAYMELSSLRSEDTAVYYCARGDYSNWFTYWGQGTLVTVSS
VL: DVVMTQTPLSLSVTPGQPASISCRSSQRLVHSNGNTYLHWYLQKPGQSPQLLIYKVSNRFSGVPDRFSGSGSGTDFTLKISRVEAEDVGVYFCSQSTHVPWTFGGGTKVEIKR
Human PRLR on cells
  Baf3-hPRLR proliferation IC50: > 30 µg/mL

B9: Ab22 (antibody, human IgG1, kappa, V domains shown)
VH: EVQLVQSGAEVKKPGSSVKVSCKASGGTFTTYWMHWVRQAPGQGLEWIGEIDPSDSYSNYAQKFQGRVTITVDKSTSTAYMELSSLRSEDTAVYYCARNGGLGPAWFSYWGQGTLVTVSS
VL: DIQMTQSPSSVSASVGDRVTITCKASQYVGTAVAWYQQKPGKAPKLLIYSASNRYTGVPSRFSGSGSGTDFTLTISSLQPEDFATYYCQQYSSYPWTFGGGTKVEIKR
Human PRLR on cells
  Baf3-hPRLR proliferation IC50: > 30 µg/mL

B10: Ab24 (antibody, human IgG1, kappa, V domains shown)
VH: EVQLVQSGAEVKKPGSSVKVSCKASGGTFTTYWMHWVRQAPGQGLEWIGEIDPSDSYSNYAQKFQGRVTITVDKSTSTAYMELSSLRSEDTAVYYCARNGGLGPAWFSYWGQGTLVTVSS
VL: EIVMTQSPATLSVSPGERATLSCKASQYVGTAVAWYQQKPGQAPRLLIYSASNRYTGIPARFSGSGSGTEFTLTISSLQSEDFAVYYCQQYSSYPWTFGGGTKVEIKR
Human PRLR on cells
  Baf3-hPRLR proliferation IC50: > 30 µg/mL

B11: Ab25 (antibody, human IgG1, kappa, V domains shown)
VH: EVQLVQSGAEVKKPGSSVKVSCKASGGTFTTYWMHWVRQAPGQGLEWIGEIDPSDSYSNYAQKFQGRVTITVDKSTSTAYMELSSLRSEDTAVYYCARNGGLGPAWFSYWGQGTLVTVSS
VL: EIVMTQSPATLSVSPGERATLSCKASQYVGTAVAWYQQKPGQSPRLLIYSASNRYTGVPARFSDSGSGTEFTLTISSLQSEDFAVYFCQQYSSYPWTFGGGTKVEIKR
Human PRLR on cells
  Baf3-hPRLR proliferation IC50: > 30 µg/mL

B12: Ab23 (antibody, human IgG1, kappa, V domains shown)
VH: EVQLVQSGAEVKKPGSSVKVSCKASGGTFTTYWMHWVRQAPGQGLEWIGEIDPSDSYSNYAQKFQGRVTITVDKSTSTAYMELSSLRSEDTAVYYCARNGGLGPAWFSYWGQGTLVTVSS
VL: DIQMTQSPSSVSASVGDRVTITCKASQYVGTAVAWYQQKPGKSPKLLIYSASNRYTGVPSRFSDSGSGTDFTLTISSLQPEDFATYFCQQYSSYPWTFGGGTKVEIKR
Human PRLR on cells
  Baf3-hPRLR proliferation IC50: > 30 µg/mL
